Experimental data reported in patent publication US20250277029A1 (Amgen, published 2025).
Changes are numbered by the printed parent chain. Names may count otherwise.

B1: LIBC524049-1 (antibody, V domains shown)
VH: QVQLQESGPGLVKPSQTLSLTCTVSGGSIRRGGDYWSWIRQHPGKGLEWIGHIYYTGSTAYNPSLKSRATISVNTYKNQFSLKLSSVTAADTAVYYCARDYDILTGYSYYYYGMDVWGQGTTVTVSS
VL: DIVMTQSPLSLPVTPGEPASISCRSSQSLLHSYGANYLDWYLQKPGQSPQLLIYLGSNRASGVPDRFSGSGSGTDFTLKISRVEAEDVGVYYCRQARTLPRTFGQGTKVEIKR
notes: Expressed as IgG1 SEFL2 mAb
B2: LIBC527997-1 (antibody, V domains shown)
VH: B1 VH with S37A, Y55Q, A60N, S64R, L65F, S67G, D100N, I103T
VL: DIQMTQSPSSLSASVGDRVTITCRASQSISNYLNWYQQKPGKAPKLLIYAASSLHSGVPSRFSGSGSGTDFTLTISSLQPEDFASYYCQQYQSYPLTFGQGTKVEIKR
notes: Expressed as IgG1 SEFL2 mAb
B3: LIBC527919-1 (antibody, V domains shown)
VH: B1 VH with S37A, I53V, Y55Q, S64N, L65F, S67D, D100N, I103A, T105S
VL: B2 VL with M4L, S30I, N31S, H55R, S85T, Q92S, S93N, Q100G, K103R
notes: Expressed as IgG1 SEFL2 mAb
B4: LIBC527814-1 (antibody, IgG1, V domains shown)
VH: B1 VH with S37G, I53V, Y55Q, A60K, L65F, S67D, D100N, I103T
VL: B2 VL with S10T
B5: LIBC527997-1 (antibody, IgG1, V domains shown)
VH: B1 VH with S37A, Y55Q, A60N, S64R, L65F, S67G, D100N, I103T
VL: B2 VL
B6: LIBC527919-1 (antibody, IgG1, V domains shown)
VH: B1 VH with S37A, I53V, Y55Q, S64N, L65F, S67D, D100N, I103A, T105S
VL: B2 VL with M4L, S30I, N31S, H55R, S85T, Q92S, S93N, Q100G, K103R
B7: LIBC680562-1 (yeast-displayed Fab) (Fab, V domains shown)
VH: B1 VH with S37A, Y55Q, A60N, S64R, L65F, S67G, D100N, I103T
VL: DIQMTQSPSSLSASVGDRVTITCRASQSISSYLNWYQQKPGKAPKLLIYSARRLSSGVPSRFSGSGSGTDFTLTISSLQPEDFATYYCQQYAKSPITFGGGTKVEIKR
B8: LIBC680800-1 (yeast-displayed Fab) (Fab, V domains shown)
VH: B1 VH with S37A, Y55Q, A60N, S64R, L65F, S67G, D100N, I103T
VL: B7 VL with R53A, A92R, S94F, I96L
B9: LIBC681593-1 (yeast-displayed Fab) (Fab, V domains shown)
VH: B1 VH with S37A, Y55Q, A60N, S64R, L65F, S67G, D100N, I103T
VL: B7 VL with S50N, S55G, A92R, K93S, I96V
B10: LIBC680574-1 (yeast-displayed Fab) (Fab, V domains shown)
VH: B1 VH with S37A, I53V, A60K, L65F, S67D, D100N, I103T
VL: B7 VL with S50G, S55G, A92S, K93S, S94L, I96V
B11: LIBC680812-1 (yeast-displayed Fab) (Fab, V domains shown)
VH: B1 VH with S37G, I53V, Y55Q, A60K, L65F, S67D, D100N, I103T
VL: B7 VL with A92R, K93S, S94Y
B12: LIBC681737-1 (yeast-displayed Fab) (Fab, V domains shown)
VH: B1 VH with S37A, I53V, A60N, S64R, L65F, S67D, D100N, I103T, L104V
VL: B7 VL with S12P, S55A, A92Y, K93H, S94P
notes: Original yeast clone without the LC P12S germline reversion; Monovalent Fab on yeast
B13: LIBC680773-1 (yeast-displayed Fab) (Fab, V domains shown)
VH: B1 VH with S37A, I53V, A60N, S64R, L65F, S67D, D100N, I103T, L104V
VL: B7 VL with S50K, R53L, A92S, K93R, S94L, I96L
B14: LIBC681594-1 (yeast-displayed Fab) (Fab, V domains shown)
VH: B1 VH with S37A, Y55Q, A60N, S64R, L65F, S67G, D100N, I103T
VL: B7 VL with S50K, R53K, Y91F, A92G, K93S, S94M, I96L
B15: LIBC523797-1 (antibody, IgG1, V domains shown)
VH: B1 VH with I53V, A60K, S64N, L65F, S67G
VL: DIVMTQSPLSLPVTPGEPASISCRSSQSLLTSYGINYVDWYLQKPGQSPQLLIYQGSNRASGVPDRFSGSGSGTDFTLKISRVEAEDVGVYYCRQAVGLPRTFGQGTKVEIKR

molecular target: T1, human cannabinoid receptor 1 (huCB1), full length, expressed on cells (human, UniProt P21554 1-472); assay: cell-based or functional assay
T1 sequence (P21554 whole entry): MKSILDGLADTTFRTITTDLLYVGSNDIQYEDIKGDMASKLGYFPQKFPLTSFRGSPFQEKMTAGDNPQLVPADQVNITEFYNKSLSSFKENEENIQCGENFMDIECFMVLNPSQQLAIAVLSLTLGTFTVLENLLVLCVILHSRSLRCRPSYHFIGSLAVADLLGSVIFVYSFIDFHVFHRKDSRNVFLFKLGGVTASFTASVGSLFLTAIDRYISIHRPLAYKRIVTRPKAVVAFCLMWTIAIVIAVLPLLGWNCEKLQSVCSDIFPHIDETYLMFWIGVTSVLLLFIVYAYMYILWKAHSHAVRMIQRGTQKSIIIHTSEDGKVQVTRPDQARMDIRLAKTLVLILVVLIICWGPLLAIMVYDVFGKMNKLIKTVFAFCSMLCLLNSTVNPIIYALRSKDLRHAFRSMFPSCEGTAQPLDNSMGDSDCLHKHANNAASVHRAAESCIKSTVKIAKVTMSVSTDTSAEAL

| Binder | Mean IC50 (nM, n = 3), cAMP antagonist assay [nM] |
| --- | --- |
| B1 | 3.71 |
| B2 | 2.54 |
| B3 | 3.01 |

molecular target: T2, GFP-fused huCB1-SMALP (human CB1 in styrene maleic acid lipoparticles) (human, UniProt P21554 1-472); assay: flow cytometry, yeast-displayed IgG, GFP MFI
T2 construct: Prepared as in Luna V. et al. 2018; also called huCB1-GFP-SMALP; wtCB1-SMALP; not shown: GFP fusion
T2 sequence (P21554 whole entry, the tested form may be a part): as the sequence (P21554 whole entry) above

| Binder | 100 nM huCB1-GFP-SMALP binding (normalized to 10D10N35Y) [fold] |
| --- | --- |
| B4 | 6.44 |
| B5 | 6.63 |
| B6 | 4.15 |

molecular target: empty nanodisc (Empty ND); assay: flow cytometry, yeast-displayed Fab, 50 nM Empty ND, after background subtraction
Sequence (P02647 79-267): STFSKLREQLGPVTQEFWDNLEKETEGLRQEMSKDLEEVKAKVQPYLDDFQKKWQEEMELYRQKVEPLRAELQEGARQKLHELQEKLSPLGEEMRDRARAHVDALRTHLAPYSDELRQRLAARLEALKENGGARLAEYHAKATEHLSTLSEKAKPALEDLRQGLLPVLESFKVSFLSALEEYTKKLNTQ

| Binder | Relative binding fold change compared to LIBC528116 (Fab) [fold] |
| --- | --- |
| B7 | 0.68 |
| B8 | 0.78 |
| B9 | 0.91 |
| B10 | 0.72 |
| B11 | 0.74 |
| B12 | 0.73 |
| B13 | 0.75 |
| B14 | 0.83 |

molecular target: T1, human cannabinoid receptor 1 (huCB1), …; assay: cell-based or functional assay; remark: another data set of the same source

| Binder | IC50, nM (CP agonist) [nM] |
| --- | --- |
| B1 | 3.7 |
| B2 | 2.5 |
| B3 | 3 |

molecular target: T1, human cannabinoid receptor 1 (huCB1), …; assay: cell-based or functional assay; remark: another data set of the same source

| Binder | Mean IC50 (nM), cAMP antagonist assay [nM] | Mean IC50, -fold vs Rimo [fold vs Rimonabant] | n = 1 IC50 (nM), cAMP antagonist assay [nM] | n = 1 IC50, -fold vs Rimo [fold vs Rimonabant] | n = 2 IC50 (nM), cAMP antagonist assay [nM] | n = 2 IC50, -fold vs Rimo [fold vs Rimonabant] |
| --- | --- | --- | --- | --- | --- | --- |
| B1 | 2.87 | 0.96 | 4.41 | 1.05 | 1.34 | 0.75 |
| B2 | 2.97 | 0.99 | 4.37 | 1.04 | 1.57 | 0.88 |
| B3 | 3.44 | 1.15 | 5.09 | 1.21 | 1.8 | 1 |

molecular target: T1, human cannabinoid receptor 1 (huCB1), …; assay: KinExA on-cell ranking, HEK 293T cells expressing full length CB1; %IFF of LIBC523661 divided by %IFF of antibody

| Binder | Relative binding (KinExA, on cell; vs LIBC523661 mAb) [ratio] |
| --- | --- |
| B1 | 1.5 |
| B2 | 2.1 |
| B3 | 2.9 |

molecular target: T3, empty-ND (nanodisc without CB1); assay: flow cytometry, yeast-displayed IgG, binding/display ratio
T3 construct: its only protein is the nanodisc scaffold; also called Empty Nanodisc

| Binder | 50.0 nM Empty Nanodisc binding (relative to 10D10N35Y) [fold] |
| --- | --- |
| B4 | 0.61 |
| B5 | 0.44 |
| B6 | 0.64 |

molecular target: T4, His-tagged huCB1-ND (human CB1 in nanodisc) (human); assay: as above
T4 construct: CB1 construct of Cell 167(3) (2016) 750-762 expressed in Sf9 cells; POPC:MSP1D1:CB1 480:8:1; also called CB1-nanodisc; huCB1-Nanodisc; not shown: histidine purification tag
T4 sequence (P21554 99-414): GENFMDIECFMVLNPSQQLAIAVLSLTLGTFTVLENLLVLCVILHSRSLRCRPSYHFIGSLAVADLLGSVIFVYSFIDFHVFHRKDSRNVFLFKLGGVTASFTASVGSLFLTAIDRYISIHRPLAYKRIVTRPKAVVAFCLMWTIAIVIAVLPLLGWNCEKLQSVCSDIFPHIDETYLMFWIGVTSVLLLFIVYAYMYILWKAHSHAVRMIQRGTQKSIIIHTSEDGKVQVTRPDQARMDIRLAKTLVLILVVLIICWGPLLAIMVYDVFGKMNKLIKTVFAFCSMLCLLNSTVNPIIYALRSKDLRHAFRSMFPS

| Binder | 0.200 nM huCB1-Nanodisc binding (relative to 10D10N35Y) [fold] |
| --- | --- |
| B4 | 6.49 |
| B5 | 6.38 |
| B6 | 5.22 |

molecular target: T5, huCB1 nanodisc (CB1-ND) (human, UniProt P21554 99-414); assay: Octet BLI; antibody captured by anti-human Fc, CB1-nanodisc in solution, 1:1 model
T5 construct: The His-tagged CB1 is embedded in a POPC lipid nanodisc with MSP1D1 scaffold protein (molar ratio 480:8:1); also called huCB1-ND; #CB1-008
T5 sequence (P21554 99-414 limits assumed): as the sequence (P21554 99-414) above

| Binder | Kd [nM] | koff [s⁻¹] | kon [M⁻¹ s⁻¹] |
| --- | --- | --- | --- |
| B1 | 15 | 0.000904 | 59000 |
| B2 | 26 | 0.00136 | 51800 |
| B3 | 60 | 0.00339 | 56200 |

molecular target: T6, GFP-fused huCB1 in styrene maleic acid lipoparticles (CB1-SMALP-GFP) (human, UniProt P21554 1-472); assay: flow cytometry, yeast-displayed Fab, 2.5 nM CB1-SMALP-GFP, after background subtraction
T6 construct: Prepared as described in Luna V. et al. 2018; also called huCB1-GFP-SMALP; GFP-tagged huCB1-SMALP; not shown: GFP fused to huCB1
T6 sequence (P21554 whole entry, the tested form may be a part): as the sequence (P21554 whole entry) above

| Binder | Relative binding fold change compared to LIBC528116 (Fab) [fold] |
| --- | --- |
| B7 | 1.94 |
| B8 | 1.76 |
| B9 | 2.37 |
| B10 | 1.72 |
| B11 | 1.71 |
| B12 | 1.94 |
| B13 | 1.9 |
| B14 | 2.57 |

molecular target: T7, human cannabinoid receptor type 2 (CB2) (human, UniProt P34972 1-360); assay: binding to huCB2, fold over mock (method not described)
T7 construct: also called huCB2; full length hu CB2
T7 sequence (P34972 whole entry): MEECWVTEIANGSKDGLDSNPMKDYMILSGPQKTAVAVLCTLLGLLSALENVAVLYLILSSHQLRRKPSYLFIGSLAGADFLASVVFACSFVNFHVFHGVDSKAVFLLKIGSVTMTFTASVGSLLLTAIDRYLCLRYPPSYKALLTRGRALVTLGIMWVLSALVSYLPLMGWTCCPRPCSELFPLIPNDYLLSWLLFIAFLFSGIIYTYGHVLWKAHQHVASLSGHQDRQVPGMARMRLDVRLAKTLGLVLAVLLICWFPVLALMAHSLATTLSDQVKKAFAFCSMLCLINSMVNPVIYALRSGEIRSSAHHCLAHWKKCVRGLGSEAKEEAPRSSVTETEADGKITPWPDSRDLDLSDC

| Binder | Fold over mock [fold] |
| --- | --- |
| B4 | 0.9 |
| B5 | 0.8 |
| B6 | 0.9 |

molecular target: T5, huCB1 nanodisc (CB1-ND); assay: flow cytometry, yeast-displayed Fab, 0.2 nM CB1-ND, after background subtraction

| Binder | Relative binding fold change compared to LIBC528116 (Fab) [fold] |
| --- | --- |
| B7 | 3.34 |
| B8 | 2.52 |
| B11 | 2.23 |
| B12 | 1.89 |
| B13 | 2.4 |
| B14 | 3.56 |

molecular target: T8, mouse CB1 (mouse, UniProt P47746 1-473); assay: binding to muCB1, fold over mock (method not described)
T8 construct: also called muCB1; murine CB1
T8 sequence (P47746 whole entry): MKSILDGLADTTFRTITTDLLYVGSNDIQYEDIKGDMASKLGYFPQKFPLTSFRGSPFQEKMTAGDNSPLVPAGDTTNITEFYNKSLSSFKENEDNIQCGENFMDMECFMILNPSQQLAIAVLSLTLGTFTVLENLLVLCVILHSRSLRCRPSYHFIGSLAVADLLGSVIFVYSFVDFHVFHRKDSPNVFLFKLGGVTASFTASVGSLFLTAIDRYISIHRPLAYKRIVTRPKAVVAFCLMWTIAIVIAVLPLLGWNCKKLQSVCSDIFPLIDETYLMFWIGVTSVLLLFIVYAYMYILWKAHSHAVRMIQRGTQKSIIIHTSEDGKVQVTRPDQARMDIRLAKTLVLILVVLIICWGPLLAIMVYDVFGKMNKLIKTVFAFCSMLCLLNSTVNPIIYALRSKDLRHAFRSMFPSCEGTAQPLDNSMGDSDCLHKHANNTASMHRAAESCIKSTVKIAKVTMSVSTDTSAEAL

| Binder | Fold over mock [fold] |
| --- | --- |
| B4 | 1.2 |
| B5 | 1 |
| B6 | 1 |

molecular target: T7, human cannabinoid receptor type 2 (CB2); assay: fold over mock (Table 14)

| Binder | binding result |
| --- | --- |
| B4 | no binding |
| B5 | no binding |
| B15 | no binding |
| B6 | no binding |

molecular target: T8, mouse CB1; assay: fold over mock (Table 14)

| Binder | binding result |
| --- | --- |
| B4 | no binding |
| B5 | no binding |
| B15 | no binding |
| B6 | no binding |

molecular target: T2, GFP-fused huCB1-SMALP (human CB1 in …); assay: flow cytometry, yeast-displayed IgG, GFP MFI; remark: another data set of the same source

| Binder | 100 nM huCB1-SMALP binding (normalized to 10D10) [fold] |
| --- | --- |
| B15 | 7.01 |
